Assay results taken from US20250270343A1 (Alector, published 2025).

T1: full-length untagged human GPNMB expressed on cells (human, UniProt Q14956 23-572)
T1 construct: also used here for GPNMB on human monocyte-derived macrophages in the functional assays; also called huGPNMB; Freestyle293-huGPNMB+
T1 sequence: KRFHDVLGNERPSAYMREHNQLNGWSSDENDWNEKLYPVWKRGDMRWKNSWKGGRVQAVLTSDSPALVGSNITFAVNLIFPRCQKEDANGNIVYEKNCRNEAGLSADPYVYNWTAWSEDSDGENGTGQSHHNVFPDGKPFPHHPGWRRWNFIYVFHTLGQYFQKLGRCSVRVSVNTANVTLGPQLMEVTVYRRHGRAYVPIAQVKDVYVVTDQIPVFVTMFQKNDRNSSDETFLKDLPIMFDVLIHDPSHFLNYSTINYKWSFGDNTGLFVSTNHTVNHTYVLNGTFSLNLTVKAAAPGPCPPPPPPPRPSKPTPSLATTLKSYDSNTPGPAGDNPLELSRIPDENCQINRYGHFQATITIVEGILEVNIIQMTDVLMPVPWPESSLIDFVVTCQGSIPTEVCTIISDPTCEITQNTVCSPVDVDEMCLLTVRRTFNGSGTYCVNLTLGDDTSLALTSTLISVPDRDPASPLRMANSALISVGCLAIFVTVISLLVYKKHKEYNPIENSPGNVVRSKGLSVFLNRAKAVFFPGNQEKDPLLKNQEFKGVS

T2: soluble mouse GPNMB-Fc polypeptide (mouse IgG2A Fc) (mouse, UniProt Q99P91 23-502)
T2 construct: extracellular domain; bought (R&D System); also called moGPNMB-Fc; mGPNMB-Fc; not shown: Fc region of mouse IgG2A
T2 sequence (looked up): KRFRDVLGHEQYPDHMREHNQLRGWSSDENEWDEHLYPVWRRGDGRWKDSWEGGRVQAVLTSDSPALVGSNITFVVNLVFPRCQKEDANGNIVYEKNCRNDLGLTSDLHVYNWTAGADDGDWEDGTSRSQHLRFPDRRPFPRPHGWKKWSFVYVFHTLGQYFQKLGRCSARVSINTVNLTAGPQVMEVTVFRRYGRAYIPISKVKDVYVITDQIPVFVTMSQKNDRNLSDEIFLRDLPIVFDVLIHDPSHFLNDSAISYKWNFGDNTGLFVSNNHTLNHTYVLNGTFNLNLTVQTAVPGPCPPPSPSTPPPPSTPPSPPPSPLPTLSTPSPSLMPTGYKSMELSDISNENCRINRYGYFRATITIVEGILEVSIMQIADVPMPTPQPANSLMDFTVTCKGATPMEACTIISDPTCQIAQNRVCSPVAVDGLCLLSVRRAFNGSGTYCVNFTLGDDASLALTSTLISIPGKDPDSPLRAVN

T3: mouse GPNMB endogenously expressed on B16F10 cells (mouse, UniProt Q99P91 23-574)
T3 construct: whole, on cells; also called moGPNMB
T3 sequence (looked up): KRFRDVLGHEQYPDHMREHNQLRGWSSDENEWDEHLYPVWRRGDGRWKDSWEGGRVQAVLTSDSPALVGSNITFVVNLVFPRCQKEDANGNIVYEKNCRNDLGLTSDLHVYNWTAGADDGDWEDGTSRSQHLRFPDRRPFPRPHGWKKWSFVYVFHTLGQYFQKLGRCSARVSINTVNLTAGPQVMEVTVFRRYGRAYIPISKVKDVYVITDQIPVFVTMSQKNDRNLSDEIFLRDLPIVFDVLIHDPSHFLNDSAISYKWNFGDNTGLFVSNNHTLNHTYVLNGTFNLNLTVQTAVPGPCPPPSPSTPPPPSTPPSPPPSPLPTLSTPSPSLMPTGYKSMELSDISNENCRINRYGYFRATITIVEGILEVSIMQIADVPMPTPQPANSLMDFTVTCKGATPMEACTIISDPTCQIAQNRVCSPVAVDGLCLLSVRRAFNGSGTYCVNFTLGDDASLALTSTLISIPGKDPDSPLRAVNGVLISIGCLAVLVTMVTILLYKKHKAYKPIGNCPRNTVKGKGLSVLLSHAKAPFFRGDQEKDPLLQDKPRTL

B1: anti-GPNMB antibody GPN-43 (antibody, human IgG1, V domains shown)
VH: EVQLQQSGPELVKPGASVKISCKASGYTFTDYYMNWVRQSHGKSLEWIGDINPYHGGSTYNQKIKVKATLTVDKSSSTAYMELRSLTSEDSAVYYCARNWPYFDYWGQGTTLTVSS
VL: DIQMTQSPASLSASVGETVTITCRASENIYSFLVWYQQKQGKSPQLLVYNAKTLAEGVPSRFSGSGSGTQFSLKISSLQPEDFGSYYCQHHFGTPPYTFGGGTKLEIK
notes: chimeric
B2: anti-GPNMB antibody GPN-65 (antibody, human IgG1, V domains shown)
VH: QLQLQQSGTEVVKPGASVKIPCKASGYAFSSYWMNWVKQRPGKGLEWIGQIYPGDGDTNDNGKFEGKATLTVDKSSNTAYIQLSSLTSEDSAVYFCARSPLHLRGSMDYWGQGTSVTVSS
VL: SIVMTQTPKFLLVSAGDRVTITCKASQSVSNDVAWFQQKPGQSPELLIYSASNRYTGVPDRFTGSGYGTDFTFTISTVQAEDLAVYFCQQNYYSPFTFGGGTRLEIK
notes: chimeric
B3: anti-GPNMB antibody GPN-42 (antibody, human IgG1, V domains shown)
VH: DVKLVESGEDLVKPGGSLKLSCAASGFTFSSYAMSWVRQTPEKRLEWVAYISSGGDYIYYADTVKGRFTISRDNARNTLYLQMSSLKSEDTAMYYCTRDRYYDYDVRDYYTMDYWGQGTSVTVSS
VL: DVMMTQTPLSLPVSLGDQASISCRSSQSLVHSNGNTYLHWFLQKPGQSPKLLIFRVSNRFSGVPDRFSGRGSGTDFTLKISRVEAEDLGVYFCSQTTHVPRTFGGGTTLEIK
notes: chimeric
B4: anti-GPNMB antibody GPN-61 (antibody, human IgG1, V domains shown)
VH: DVQLQESGPGLVKPSQTVFLTCTVTGISITTGNYRWSWIRQFPGNKLEWIGYIYYSGTITYNPSLTSRTTITRDTPKNQFFLEMSSLTAEDTATYFCARDLRHWYFDVWGTGTTVTVSS
VL: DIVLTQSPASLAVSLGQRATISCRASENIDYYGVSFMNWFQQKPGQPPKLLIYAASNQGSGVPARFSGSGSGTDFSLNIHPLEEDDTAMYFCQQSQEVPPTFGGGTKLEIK
notes: chimeric
B5: anti-GPNMB antibody GPN-48 (antibody, human IgG1, V domains shown)
VH: QVQLQQSGPELVKPGASVKLSCRASGYGFSSFWMNWVKQRPGKGLEWIGRIYPGKGDTLYNGKFKDKATLTADESSSTAYMQLSSLTSEDSAVYFCARSIYYYDYWYFDVWDTGTTVTVSS
VL: DIVMTQSHKFMSTSVGDRVNITCKASQDVNSAIAWYQQKPGQSPKLLIYSASYRFIGVPDRFTGSGSGTGFTFTISSVQAEDLAVYYCQQHYTTPLTFGAGTKLELK
notes: chimeric

Tests used:
[1] = molecular target: T1, full-length untagged human GPNMB …; assay: FACS, FS293-huGPNMB+ cells; single-point FACS staining of Freestyle293-huGPNMB+ cells; weak signal, 1.5-fold over background
[2] = molecular target: T2, soluble mouse GPNMB-Fc polypeptide …; assay: FACS, enhancing of moGPNMB-Fc binding to SVEC4-10 cells
Procedure: Purified full-length anti-GPNMB antibodies of the present disclosure were evaluated for their ability to block binding of moGPNMB-Fc to SVEC4-10 cells to determine the ligand blocking potency of each anti-GPNMB monoclonal antibody. Briefly, 2 μg/mL moGPNMB-Fc (mouse IgG2A Fc) diluted in binding buffer was pre-complexed with increasing concentrations of anti-GPNMB antibody of the present disclosure or human IgG1 isotype control antibody in 96-well plates. Subsequently, 100,000 SVEC4-10 cells were added per well and incubated on ice for 30 minutes. Soluble moGPNMB-Fc bound to cell surface was detected with fluorescent anti-mouse IgG2A secondary antibody and measured on FACSCanto. (FIG. 5A and FIG. 5B) IC50 values (for antibodies that block moGPNMB-Fc cell binding) and EC50 values (for antibodies that enhance moGPNMB-Fc cell binding) based on changes in MFI values were calculated (average+standard error) for each anti-GPNMB antibody and listed in Table 6. In Table 6, NA indicates no activity. […] In all cases, certain anti-GPNMB antibodies of the present disclosure blocked soluble GPNMB binding to cells, while other anti-GPNMB antibodies of the present disclosure enhanced soluble GPNMB binding to cells.

[3] = molecular target: T1, full-length untagged human GPNMB …; assay: FACS, FS293-huGPNMB+ cells; single-point FACS staining of Freestyle293-huGPNMB+ cells; weak signal, 2.0-fold over background
[4] = molecular target: T3, mouse GPNMB endogenously expressed on …; assay: FACS, B16F10 cells; single-point FACS staining of B16F10 cells; weak signal, 1.7-fold over background
[5] = molecular target: T3, mouse GPNMB endogenously expressed on …; assay: FACS titration on B16F10 cells (endogenous mouse GPNMB) at 4 C; fluorescent secondary antibody; MFI-APC against soluble antibody (nM)
Procedure: Cell-based binding measurements were also performed to measure the apparent affinities of anti-GPNMB antibodies of the present disclosure to cell-surface expressed GPNMB. Serial dilutions of the monoclonal anti-GPNMB antibodies were added to 100,000 Freestyle293-huGPNMB+ or B16F10 cells and allowed to achieve binding equilibrium at 4° C. After addition of fluorescently labeled secondary antibody and brief washing steps, MFI values as a function of titrated antibody concentration was recorded via FACS analysis. Curves were fit using nonlinear regression analysis with Graphpad Prism 6 software.

Binder | EC50 [2] [nM] | MFI fold over background [4] [fold] | EC50 (read off the curve) [5] [nM] | further results
B1 |  |  |  | MFI fold over background [1]: 1.5 fold
B2 | 4.27 |  |  | 
B3 | 1.19 |  |  | MFI fold over background [3]: 2 fold
B4 |  | 1.7 | ~0.1 | 
B5 |  | 1.7 | ~1 | 
